Source: paper PMC12795676, “Integrin α5β1 mediates the inhibitory effects of vasoinhibin on angiogenesis and vascular permeability [image fx1.gif]” (The Journal of Biological Chemistry, 2025)
No end group written: not given here.

Assays:
Conditions in all cases: both partners purified
[1] = molecular target: T1, recombinant human integrin α5β1 (human, UniProt P08648 42-995; P05556 21-728); assay: ELISA; plates coated with 2 μg/mL integrin α5β1, PAI-1 or PAI-1-uPA complex; incubated with B-Vi45-51 or Vi (dose-dependent) or 100 nM Vi mutants; horseradish peroxidase antibodies and TMB
T1 construct: integrin α5 subunit, human, recombinant; integrin β1 subunit, human, recombinant; No catalogue number is printed; also called α5β1 integrin; source: bought: Bio-Techne

[2] = molecular target: T2, PAI-1-uPA complex, immobilised on ELISA plates (UniProt P05121 24-402; P00749 21-431); assay: as above
T2 construct: the methods print '(37 °C, 10 min)' after the complex

[3] = molecular target: plasminogen activator inhibitor-1 (PAI-1), immobilised on ELISA plates (UniProt P05121 24-402); assay: as above
[4] = molecular target: T1, recombinant human integrin α5β1; assay: SPR; B-Vi45-51 (100 nM) immobilised on a streptavidin SA chip (Biacore 1K); integrin α5β1 injected at 30 μl/min, 60 s association/dissociation; HBS-P, 150 mM NaCl, 1 mM MnCl2, pH 7.4; 1:1 model (legend: steady-state)

T1 sequence (P08648 42-995, chain 1 of 2): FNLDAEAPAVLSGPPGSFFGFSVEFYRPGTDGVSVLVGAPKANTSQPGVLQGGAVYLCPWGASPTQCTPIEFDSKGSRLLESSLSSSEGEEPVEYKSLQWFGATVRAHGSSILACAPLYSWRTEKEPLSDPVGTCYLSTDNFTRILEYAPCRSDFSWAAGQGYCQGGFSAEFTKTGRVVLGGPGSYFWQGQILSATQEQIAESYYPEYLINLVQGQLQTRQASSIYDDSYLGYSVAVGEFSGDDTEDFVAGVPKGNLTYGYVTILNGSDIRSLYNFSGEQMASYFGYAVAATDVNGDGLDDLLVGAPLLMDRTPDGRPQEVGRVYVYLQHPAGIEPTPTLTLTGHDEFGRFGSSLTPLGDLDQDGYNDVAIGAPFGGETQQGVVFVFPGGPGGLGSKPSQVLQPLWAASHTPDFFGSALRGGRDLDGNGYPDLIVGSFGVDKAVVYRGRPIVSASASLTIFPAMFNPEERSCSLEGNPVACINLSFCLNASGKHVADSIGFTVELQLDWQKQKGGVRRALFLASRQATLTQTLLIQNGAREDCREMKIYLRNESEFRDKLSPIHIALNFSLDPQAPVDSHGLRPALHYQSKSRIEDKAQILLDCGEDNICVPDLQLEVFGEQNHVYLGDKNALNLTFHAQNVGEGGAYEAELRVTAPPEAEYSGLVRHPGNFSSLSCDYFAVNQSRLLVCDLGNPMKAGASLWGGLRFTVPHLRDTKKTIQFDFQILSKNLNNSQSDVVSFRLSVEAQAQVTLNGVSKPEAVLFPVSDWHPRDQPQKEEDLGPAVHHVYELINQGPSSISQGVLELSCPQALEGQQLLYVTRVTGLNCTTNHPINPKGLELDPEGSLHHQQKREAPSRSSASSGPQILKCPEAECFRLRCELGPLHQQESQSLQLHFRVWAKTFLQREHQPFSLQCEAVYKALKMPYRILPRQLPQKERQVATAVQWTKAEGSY
T1 sequence (P05556 21-728, chain 2 of 2): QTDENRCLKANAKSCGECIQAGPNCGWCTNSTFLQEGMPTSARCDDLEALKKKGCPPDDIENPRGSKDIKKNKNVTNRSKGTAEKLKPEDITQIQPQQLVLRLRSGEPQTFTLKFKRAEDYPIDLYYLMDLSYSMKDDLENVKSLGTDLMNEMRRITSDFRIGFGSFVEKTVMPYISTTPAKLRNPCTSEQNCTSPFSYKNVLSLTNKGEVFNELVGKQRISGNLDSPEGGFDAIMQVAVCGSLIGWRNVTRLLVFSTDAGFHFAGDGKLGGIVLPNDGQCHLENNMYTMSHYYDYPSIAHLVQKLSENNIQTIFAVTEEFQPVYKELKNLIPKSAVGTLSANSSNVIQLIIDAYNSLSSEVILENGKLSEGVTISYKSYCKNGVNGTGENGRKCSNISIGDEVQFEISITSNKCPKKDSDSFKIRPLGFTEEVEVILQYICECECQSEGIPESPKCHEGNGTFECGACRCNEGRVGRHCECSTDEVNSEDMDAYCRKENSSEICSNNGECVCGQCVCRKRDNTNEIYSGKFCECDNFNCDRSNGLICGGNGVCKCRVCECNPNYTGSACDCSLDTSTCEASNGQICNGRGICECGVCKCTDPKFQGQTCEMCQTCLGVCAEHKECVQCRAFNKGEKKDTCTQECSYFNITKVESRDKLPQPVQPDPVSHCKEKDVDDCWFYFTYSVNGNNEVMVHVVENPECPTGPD
T2 sequence (P05121 24-402, chain 1 of 2, other chains not shown): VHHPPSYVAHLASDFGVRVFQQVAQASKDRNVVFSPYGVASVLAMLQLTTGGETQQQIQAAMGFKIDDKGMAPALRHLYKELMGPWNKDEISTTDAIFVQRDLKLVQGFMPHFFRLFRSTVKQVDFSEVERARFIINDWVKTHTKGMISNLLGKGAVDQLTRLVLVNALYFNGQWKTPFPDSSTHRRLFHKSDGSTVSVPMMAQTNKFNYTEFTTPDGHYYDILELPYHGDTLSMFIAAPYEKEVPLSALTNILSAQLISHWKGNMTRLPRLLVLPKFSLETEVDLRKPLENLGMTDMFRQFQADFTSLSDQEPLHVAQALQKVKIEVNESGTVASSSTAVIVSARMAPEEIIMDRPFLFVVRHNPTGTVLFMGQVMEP
Sequence of plasminogen activator inhibitor-1 (PAI-1), immobilised on ELISA plates (P05121 24-402): as the sequence (P05121 24-402, chain 1 of 2, other chains not shown) above

B1: vasoinhibin (Vi) (domain or fragment, UniProt P01236 29-151, looked up)
chain: LPICPGGAARCQVTLRDLFDRAVVLSHYIHNLSSEMFSEFDKRYTHGRGFITKAINSCHTSSLATPEDKEQAQQMNQKDFLSLIVSILRSWNEPLYHLVTEVRGMQEAPEAILSKAVEIEEQT
notes: vasoinhibin, a fragment of the hormone prolactin; also called 16K prolactin
Kd [1]: 383 nM
Kd [2]: 406 nM
Kd [3]: 528 nM

B2: biotinylated peptide comprising residues 45 to 51 of vasoinhibin (B-Vi45-51) (peptide, UniProt P01236 73-79, looked up)
peptide: THGRGFI
modifications: also: biotin, position not given here
notes: vasoinhibin (fragment of prolactin), residues 45 to 51, holds the HGR motif (H46, R48 printed); also called biotinylated Vi45-51; source: synthetic peptide, bought: GenScript
Kd [4]: 2740 nM
